# From patent US20100286367
# B1: thiolated streptokinase (protein)
# chain: IAGPEWLLDRPSVNNSQLVVSVAGTVEGTNQDISLKFFEIDLTSRPAHGGKTEQGLSPKSKPFATDSGAMSHKLEKADLLKAIQEQLIANVHSNDDYFEVIDFASDATITDRNGKVYFADKDGSVTLPTQPVQEFLLSGHVRVRPYKEKPIQNQAKSVDVEYTVQFTPLNPDDDFRPGLKDTKLLKTLAIGDTITSQELLAQAQSILNKNHPGYTIYERDSSIVTHDNDIFRTILPMDQEFTYRVKNREQAYRINKKSGLNEEINNTDLISEKYYVLKKGEKPYDPFDRSHLKLFTIKYVDVDTNELLKSEQLLTASERNLDFRDLYDPRDKAKLLYNNLDAFGIMDYTLTGKVEDNHDDTNRIITVYMGKRPEGENASYHLAYDKDRYTEEEREVYSYLRYTGTPIPDNPNDK
# Target: T1, purified human Lys77-Plasminogen, P00747
# T1 chain: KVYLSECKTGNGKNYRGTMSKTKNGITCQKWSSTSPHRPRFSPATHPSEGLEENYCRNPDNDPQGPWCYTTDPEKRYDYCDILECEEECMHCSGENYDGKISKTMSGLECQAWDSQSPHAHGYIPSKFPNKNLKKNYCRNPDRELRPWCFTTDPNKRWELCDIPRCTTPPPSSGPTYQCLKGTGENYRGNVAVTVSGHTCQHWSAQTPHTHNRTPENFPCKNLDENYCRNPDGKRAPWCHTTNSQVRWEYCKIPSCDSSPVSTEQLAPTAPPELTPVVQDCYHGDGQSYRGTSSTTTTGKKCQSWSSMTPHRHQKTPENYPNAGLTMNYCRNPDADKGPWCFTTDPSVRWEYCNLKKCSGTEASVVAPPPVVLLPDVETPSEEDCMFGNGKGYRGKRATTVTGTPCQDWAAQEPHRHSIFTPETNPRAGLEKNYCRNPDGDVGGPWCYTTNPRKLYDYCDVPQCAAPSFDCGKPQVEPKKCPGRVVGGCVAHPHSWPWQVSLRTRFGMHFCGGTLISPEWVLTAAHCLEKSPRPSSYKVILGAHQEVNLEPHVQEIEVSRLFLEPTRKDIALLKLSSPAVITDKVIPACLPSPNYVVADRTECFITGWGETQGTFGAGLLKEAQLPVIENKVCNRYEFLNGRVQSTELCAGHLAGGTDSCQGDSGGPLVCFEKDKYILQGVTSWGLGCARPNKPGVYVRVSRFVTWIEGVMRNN
protein,measurement,value
B1,"plasmin generated in the plasminogen activation assay (S-2251 amidolysis, SU/ml)",thiolated SK (1 nM) generated plasmin at a nearly linear of 4225 SU/mL
